Legend:
[1] = molecular target: recombinant human ADAM10 (amino residues 18-672, Cat. No 936-AD) (human) (UniProt O14672)
[2] = molecular target: 6 activating periplasm out of 27 periplasm tested for ADAM10
[3] = molecular target: 5 inhibiting periplasm out of 27 periplasm tested for ADAM10
[4] = molecular target: 9 activating periplasm out of 31 periplasm tested for ADAM9
[5] = molecular target: 7 inhibiting periplasm out of 31 periplasm tested for ADAM9

Percent activity compared to no periplasm (50x excess) [1] [percent] | Binder | also measured
76.4 | Nanobody 39-D8, E8 (VHH) VHH: EVQLVESGGGLVRARGSLRLSCAASGGTFSRYAMGWFRQAPGKEREFVAAISRSGGNTYFTESVKGRFTMSRDNAKNTVYLQMNSLKPEDTAVYYCAARSAAVYTTTVYLVDFEYNYWGQGTQVTVSS | 
86.5 | Nanobody 33-A1 (VHH) VHH: EVQLVESGGGLVQAGGSLRLSCAASGDTFSRYSMGWFRQAPGKEREFVVYITRSGRTTYYQDSVKGRFTISRDNAKNTVYLQMNSLKPEDTAVYYCAAMRSGNVRYPERYDYWGQGTQVTVSS | 
85.6 | Nanobody 33-D1 (VHH) VHH: EVQLVESGGGLVQAGDSLRLSCAATGRTFSSDAMGWFRQAPGKERAFVAGINYNSVYRYYTDSVEGRFTISRDNAKNTVYLQMNSLKPEDTAVYYCAADSDYYSLIGGRPVNYWGQGTQVTVSS | 
67.1 | Nanobody 39-B1 (VHH) VHH: EVQLVESGGGLVQAGGSLRLSCARSGRISNINIMAWYRQAPGKTRDMVAAIIGDSTNYADSVKGRFTISRDNAKNTVYLHMNRLKPEDTGVYYCKISGVDWGQGTQVTVSS | 
84.6 | Nanobody 39-D1 (VHH) VHH: KVQLVESGGGLVQAGGSLRLSCAASGNIFINNAVGWYRQAPGKQREMVAAMLSGGSTNYADSVKGRFTISRDNAKNTVYLQMNSLKPEDTAVYYCNVQVNGTWARWGQGTQVTVSS | 
 | recombinant human ADAM10 (amino residues 18-672, Cat. No 936-AD) (protein) GGQYGNPLNKYIRHYEGLSYNVDSLHQKHQRAKRAVSHEDQFLRLDFHAHGRHFNLRMKRDTSLFSDEFKVETSNKVLDYDTSHIYTGHIYGEEGSFSHGSVIDGRFEGFIQTRGGTFYVEPAERYIKDRTLPFHSVIYHEDDINYPHKYGPQGGCADHSVFERMRKYQMTGVEEVTQIPQEEHAANGPELLRKKRTTSAEKNTCQLYIQTDHLFFKYYGTREAVIAQISSHVKAIDTIYQTTDFSGIRNISFMVKRIRINTTADEKDPTNPFRFPNIGVEKFLELNSEQNHDDYCLAYVFTDRDFDDGVLGLAWVGAPSGSSGGICEKSKLYSDGKKKSLNTGIITVQNYGSHVPPKVSHITFAHEVGHNFGSPHDSGTECTPGESKNLGQKENGNYIMYARATSGDKLNNNKFSLCSIRNISQVLEKKRNNCFVESGQPICGNGMVEQGEECDCGYSDQCKDECCFDANQPEGRKCKLKPGKQCSPSQGPCCTAQCAFKSKSEKCRDDSDCAREGICNGFTALCPASDPKPNFTDCNRHTQVCINGQCAGSICEKYGLEECTCASSDGKDDKELCHVCCMKKMDPSTCASTGSVQWSRHFSGRTITLQPGSPCNDFRGYCDVFMRCRLVDADGPLARLKKAIFSPELYENIAE | ADAM protease assay, fluorogenic peptide substrate ES003, periplasms containing Nanobodies [2]: 6 activated significantly (more than 200% initial activity); ADAM protease assay, fluorogenic peptide substrate ES003, periplasms containing Nanobodies [3]: 5 inhibited significantly (less than 40% residual activity)
194 | Nanobody 39-C8 (VHH) VHH: EMQLVESGGGLVQTGGSLRLSCAASGRTFTSYCVGWWRQAPGKERDVVAAITRGSNSTDYVDSVKGRFTISRDNAENTVYLQMNSLKPEDTAVYYCAADINCRNLYTGRPEYWGQGTQVTVSS | 
 | recombinant human ADAM9 (amino residues 1-697, R&D Systems, Cat. No. 939-AD) (protein) AARPGFQQTSHLSSYEIITPWRLTRERREAPRPYSKQVSYVIQAEGKEHIIHLERNKDLLPEDFVVYTYNKEGTLITDHPNIQNHCHYRGYVEGVHNSSIALSDCFGLRGLLHLENASYGIEPLQNSSHFEHIIYRMDDVYKEPLKCGVSNKDIEKETAKDEEEEPPSMTQLLRRRRAVLPQTRYVELFIVVDKERYDMMGRNQTAVREEMILLANYLDSMYIMLNIRIVLVGLEIWTNGNLINIVGGAGDVLGNFVQWREKFLITRRRHDSAQLVLKKGFGGTAGMAFVGTVCSRSHAGGINVFGQITVETFASIVAHELGHNLGMNHDDGRDCSCGAKSCIMNSGASGSRNFSSCSAEDFEKLTLNKGGNCLLNIPKPDEAYSAPSCGNKLVDAGEECDCGTPKECELDPCCEGSTCKLKSFAECAYGDCCKDCRFLPGGTLCRGKTSECDVPEYCNGSSQFCQPDVFIQNGYPCQNNKAYCYNGMCQYYDAQCQVIFGSKAKAAPKDCFIEVNSKGDRFGNCGFSGNEYKKCATGNALCGKLQCENVQEIPVFGIVPAIIQTPSRGTKCWGVDFQLGSDVPDPGMVNEGTKCGAGKICRNFQCVDASVLNYDCDVQKKCHGHGVCNSNKNCHCENGWAPPNCETKGYGGSVDSGPTYNEMNTALRD | ADAM protease assay, fluorogenic peptide substrate ES003, periplasms containing Nanobodies [4]: 9 were significantly activating; ADAM protease assay, fluorogenic peptide substrate ES003, periplasms containing Nanobodies [5]: 7 showed significant inhibition
144 | Nanobody 39-F1 (VHH) VHH: EVQLVESGGGLVQAGGSLRLSCAASERIFSTYFMGWFRQAPGKEREFVAFISGNGGSTDYADSVKGRFAISRDNVKNTLYLQMSSLKPDDTAVYYCAVAGRQIKSTWGYWGQGTQVTVSS | 
163 | Nanobody 32-E1, E6, 39-A2 (VHH) VHH: EVQLVESGGGLVQAGGSLRLSCAASERIFSTYFMGWFRQAPGKEREFVAFISGNGGSTDYADSVKGRFAISRDNVKNTLYLQMSSLKPDDTAVYYCAVAGRQIKSTWDYWGQGTQVTVSS | 
